Source: article PMC5457501 (Nature Communications, 2017)
Positions count from the first letter of the chain named. In names and notes the source's numbering stands. Several values for one entry are separate records, joined by “and”; a condition that tells them apart may be missing. Equal values may be shown once.

B1: RPA70N (RPA70 residues 1-120) (domain or fragment, human, UniProt P27694 1-120, looked up)
chain: MVGQLSEGAIAAIMQKGDTNIKPILQVINIRPITTGNSPPRYRLLMSDGLNTLSSFMLATQLNPLVEEEQLSSNCVCQIHRFIVNTLKDGRRVVILMELEVLKSAEAVGVKIGNPVPYNE
notes: RPA70 (replication protein A 70 kDa subunit), human, N-terminal domain, residues 1-120; pET15b construct; 15N-enriched for some NMR samples; also called RPA70_(1-120); RPA70N domain of RPA70; source: E. coli BL21 (DE3), purified (HisTrap, thrombin cleavage, Superdex 75)
B2: PrimPol RPA-binding domain (PrimPol_(480-560)) (domain or fragment, human, UniProt Q96LW4 480-560, looked up)
chain: TTDEADETRSNETQNPHKPSPSRLSTGASADAVWDNGIDDAYFLEATEDAELAEAAENSLLSYNSEVDEIPDELIIEVLQE
notes: 15N-enriched for one NMR sample; also called PrimPolRBD; RBD; source: E. coli BL21(pLysS), purified (Ni Sepharose, Q Sepharose, Superdex 75)
B3: RPA70N^E7R (domain or fragment, human, UniProt P27694 1-120, looked up)
chain: B1 chain with E7R
notes: RPA70, human, N-terminal domain, residues 1-120, with E7R (variant optimised for crystallisation of complexes); source: E. coli BL21 (DE3), purified (HisTrap, thrombin cleavage, Superdex 75)
B4: PrimPol RBD RBM-A knockout (D514R/D518R/D519R) (domain or fragment, human, UniProt Q96LW4 480-560, looked up)
chain: B2 chain with D35R, D39R, D40R
notes: PrimPol, human, RBD residues 480-560 with D514R, D518R, D519R; also called PrimPol_(A-KO); RBD_(A-KO); source: E. coli BL21(pLysS), purified (Ni Sepharose, Q Sepharose, gel filtration)
B5: PrimPol RBD RBM-B knockout (480-546 truncation) (domain or fragment, human, UniProt Q96LW4 480-546, looked up)
chain: TTDEADETRSNETQNPHKPSPSRLSTGASADAVWDNGIDDAYFLEATEDAELAEAAENSLLSYNSEV
notes: PrimPol, human, residues 480-546 (RBD without RBM-B); also called PrimPol_(B-KO); RBD_(B-KO); source: E. coli BL21(pLysS), purified (Ni Sepharose, Q Sepharose, gel filtration)
B6: RBM-A peptide (RBM-A_(510-528)) (peptide, UniProt Q96LW4 510-528, looked up)
peptide: DAVWDNGIDDAYFLEATED
notes: source: synthetic peptide (GenScript), HPLC purified
B7: PrimPol_(514-528) peptide (peptide, UniProt Q96LW4 514-528, looked up)
peptide: DNGIDDAYFLEATED
notes: PrimPol, human, residues 514-528 (RBM-A), 15-mer; also called RBM-A peptide residues (PrimPol_(514-528)); 15-mer PrimPol_(514-528) peptide; source: synthetic peptide (Genscript), used as supplied

What was measured:
Conditions in all cases: both partners purified
[1] = biological target: B2; assay: SEC; analytical gel filtration, Superdex S75 10/300 GL, 50 mM Tris-HCl pH 7.5, 100 mM NaCl, 2 mM TCEP; 0.5 ml loaded at 35 uM; binding read from a shift of the peaks
[2] = biological target: B1; assay: NMR titration; 15N-1H HSQC at 25 C; 100 uM 15N-enriched RPA70N or 15N-enriched PrimPol 480-560 alone and with 200 uM unlabelled partner; 20 mM HEPES pH 7.5, 80 mM NaCl, 2 mM DTT
RPA70N^E7R = biological target: B3; assay: crystal structure; co-crystals by sitting-drop vapour diffusion at 293 K; RPA70N E7R with PrimPol 514-528 peptide (2.5:1 peptide:protein) or with PrimPol 480-560 (1:1)
[3] = biological target: B2; assay: SEC-MALS; Superdex 75 increase 10/300 GL, 20 mM HEPES pH 7.1, 80 mM NaCl, 0.5 mM TCEP; RBD at 185 uM with RPA70N E7R at 0, 1, 2 and 4 x molar ratios
[4] = biological target: B1; assay: ITC; MicroCal VP-ITC; 400 uM PrimPol RBD (WT or variants) injected into 20 uM RPA70N; 20 mM HEPES pH 7.5, 80 mM NaCl, 3 mM beta-mercaptoethanol; single-site model

Binder: B1
- stoichiometry N [1]: 2 RPA70N per PrimPolRBD

Binder: B2
- binding result [2]: binds
- binding result (RPA70N^E7R): binds

Binder: B3
- stoichiometry N [3]: 1 RPA70N per PrimPolRBD and 2 RPA70N per PrimPolRBD

Binder: B4
- Kd [4]: 7.8 ± 0.6 µM

Binder: B5
- Kd [4]: 6.7 ± 1.5 µM

Binder: B6
- binding result [2]: binds

Binder: B7
- binding result (RPA70N^E7R): binds
